According to patent US10781456B2, “Carbon-neutral and carbon-positive photorespiration bypass routes supporting higher photosynthetic rate and yield” (Max-Planck-Gesellschaft zur Förderung der Wissenschaften …, priority 2015, dated 2020):

Tests used:
[1] = substrate: CC(C)(COP(=O)(O)OP(=O)(O)OC[C@H]1O[C@@H](n2cnc3c(N)ncnc32)[C@H](O)[C@@H]1OP(=O)(O)O)[C@@H](O)C(=O)NCCC(=O)NCCSC(=O)CO; assay: PCCMe_D407I_Y143H activity for conversion of glycolyl-CoA into tartronyl-CoA (reaction 3#), coupled ATP hydrolysis (PK/LDH) assay; type: biochemical, Methylobacterium extorquens; conditions: other: 37° C., pH 7.7, ATP hydrolysis assay, 0.125-3 mM glycolyl-CoA, n=2
[2] = substrate: CC(C)(COP(=O)(O)OP(=O)(O)OC[C@H]1O[C@@H](n2cnc3c(N)ncnc32)[C@H](O)[C@@H]1OP(=O)(O)O)[C@@H](O)C(=O)NCCC(=O)NCCSC(=O)C(O)C(=O)O; assay: MCRCa activity for conversion of tartronyl-CoA into glycerate (reactions 4# and 5), NADPH oxidation; type: biochemical, Chloroflexus aurantiacus; conditions: pH 7.5, 0.4 mM NADPH
Experimental: For the heterologous expression of the MCRCa protein (amino acid sequence is shown in SEQ ID NO: 8; corresponding nucleic acid sequence encoding the protein is depicted in SEQ ID NO: 7) the previously described pTRC-MCRCa plasmid (Kröger et al., 2011, Analytical biochemistry, 411(1), 100-105) was employed.
Cells were harvested at 10 000×g for 10 min and cell pellets were stored at −80° C. until purification of enzymes. Cell pellets of MCRCa and MCRE overexpressing cells were resuspended in two-fold volume of buffer AStrep (50 mM Tris/HCl, 150 mM NaCl, pH 7.8) containing 0.1 mg mL^−1 DNAse I. The cell suspension was passed through a French pressure cell twice at a pressure of 137 MPa and centrifuged at 100 000×g and 4° C. for 1 h. The supernatant was filtered through a 0.45 μm syringe filter and loaded at a flow rate of 1 mL min^−1 onto a 1 mL StrepTrap™ HP column (GE healthcare) which had previously been equilibrated with 5 column volumes of buffer AStrep. The column was washed with 20 column volumes of buffer AStrep and the protein was eluted with buffer AStrep containing 3 mM desthiobiotin. The enzyme was stored in buffer AStrep containing 20% glycerol.
(§1) The kinetics of the MCRCa enzyme for enzymatically converting the substrate tartonyl-CoA into glycerate (via reactions 4# and 5 both catalyzed by MCRCa) were determined spectrophotometrically at 365 nm following the oxidation of NADPH. Per molecule tartronyl-CoA, two molecules of NADPH are oxidized by MCRCa (a first in reaction 4# and a second in reaction 5) The measurements were carried out at 37° C. in a total reaction volume of 200 μL containing 100 mM MOPS buffer (with 5 mM MgCl2, pH 7.5) with an initial NADPH concentration of 0.4 mM NADPH and 23 μg MCRCa.

tartronyl-CoA = assay: malonyl-CoA reductase spectrophotometric assay, NADPH oxidation at 365 nm, tartronyl-CoA into glycerate (reactions 4# and 5); type: biochemical; conditions: 0.25 mM tartronyl-CoA
Experimental: as §1
(§2) An alternative enzyme for catalyzing the conversion of tartonyl-CoA into glycerate (via reactions 4# and 5) is the MCR from Erythrobacter sp. NAP1 (MCRE). It was tested for its activity with malonyl-CoA and for tartronyl-CoA with the assay described above for MCRCa.

malonyl-CoA = malonyl-CoA reductase activity with physiological substrate malonyl-CoA; type: biochemical
Experimental: as §1
(0.3 mM substrate, Kröger et al. 2011, loc. cit.). With tartronyl-CoA (0.25 mM), the specific activity at 37° C. was 0.6 U mg^−1.
as §2

[3] = other: 37° C., n=3, nonlinear regression
[4] = other: FIG. 8D and Table 5, 37° C., n=3

B1: propionyl-CoA carboxylase from Methylobacterium extorquens (PCCMe) variant PCCMe_D407I_Y143H (pccA SEQ ID NO: 2; pccB_D407I_Y143H SEQ ID NO: 6) (Methylorubrum … (protein)
chain 1: MKDILEKLEERRAQARLGGGEKRLEAQHKRGKLTARERIELLLDHGSFEEFDMFVQHRSTDFGMEKQKIPGDGVVTGWGTVNGRTVFLFSKDFTVFGGSLSEAHAAKIVKVQDMALKMRAPIIGIFDAGGARIQEGVAALGGHGEVFRRNVAASGVIPQISVIMGPCAGGDVYSPAMTDFIFMVRDTSYMFVTGPDVVKTVTNEVVTAEELGGAKVHTSKSSIADGSFENDVEAILQIRRLLDFLPANNIEGVPEIESFDDVNRLDKSLDTLIPDNPNKPYDMGELIRRVVDEGDFFEIQAAYARNIITGFGRVEGRTVGFVANQPLVLAGVLDSDASRKAARFVRFCNAFSIPIVTFVDVPGFLPGTAQEYGGLIKHGAKLLFAYSQATVPLVTIITRKAFGGAYIVMASKHVGADLNYAWPTAQIAVMGAKGAVEIIFRAEIGDADKIAERTKEYEDRFLSPFVAAERGYIDEVIMPHSTRKRIARALGMLRTKEMEQPWKKHDNIPL
chain 2: MFDKILIANRGEIACRIIKTAQKMGIKTVAVYSDADRDAVHVAMADEAVHIGPAPAAQSYLLIEKIIDACKQTGAQAVHPGYGFLSERESFPKALAEAGIVFIGPNPGAIAAMGDKIESKKAAAAAEVSTVPGFLGVIESPEHAVTIADEIGYPVMIKASAGGGGKGMRIAESADEVAEGFARAKSEASSSFGDDRVFVEKFITDPRHIEIQVIGDKHGNVIYLGERECSIQRRNQKVIEEAPSPLLDEETRRKMGEQAVALAKAVNYDSAGTVEFVAGQDKSFYFLEMNTRLQVEHPVTEMITGLDLVELMIRVAAGEKLPLSQDQVKLDGWAVESRVYAEDPTRNFLPSIGRLTTYQPPEEGPLGGAIVRNDTGVEEGGEIAIHYDPMIAKLVTWAPTRLEAIEAQATALDAFAIEGIRHNIPFLATLMAHPRWRDGRLSTGFIKEEFPEGFIAPEPEGPVAHRLAAVAAAIDHKLNIRKRGISGQMRDPSLLTFQRERVVVLSGQRFNVTVDPDGDDLLVTFDDGTTAPVRSAWRPGAPVWSGTVGDQSVAIQVRPLLNGVFLQHAGAAAEARVFTRREAELADLMPVKENAGSGKQLLCPMPGLVKQIMVSEGQEVKNGEPLAIVEAMKMENVLRAERDGTISKIAAKEGDSLAVDAVILEFA
Km [1]: 1.0 ± 0.15 mM (glycolyl-CoA) mM | Vmax [1]: 1.5 ± 0.09 U mg^−1

B2: malonyl-CoA reductase from Chloroflexus aurantiacus (MCRCa), SEQ ID NO: 8 (Chloroflexus aurantiacus) (protein)
chain: MSGTGRLAGKIALITGGAGNIGSELTRRFLAEGATVIISGRNRAKLTALAERMQAEAGVPAKRIDLEVMDGSDPVAVRAGIEAIVARHGQIDILVNNAGSAGAQRRLAEIPLTEAELGPGAEETLHASIANLLGMGWHLMRIAAPHMPVGSAVINVSTIFSRAEYYGRIPYVTPKAALNALSQLAARELGARGIRVNTIFPGPIESDRIRTVFQRMDQLKGRPEGDTAHHFLNTMRLCRANDQGALERRFPSVGDVADAAVFLASAESAALSGETIEVTHGMELPACSETSLLARTDLRTIDASGRTTLICAGDQIEEVMALTGMLRTCGSEVIIGFRSAAALAQFEQAVNESRRLAGADFTPPIALPLDPRDPATIDAVFDWGAGENTGGIHAAVILPATSHEPAPCVIEVDDERVLNFLADEITGTIVIASRLARYWQSQRLTPGARARGPRVIFLSNGADQNGNVYGRIQSAAIGQLIRVWRHEAELDYQRASAAGDHVLPPVWANQIVRFANRSLEGLEFACAWTAQLLHSQRHINEITLNIPANISATTGARSASVGWAESLIGLHLGKVALITGGSAGIGGQIGRLLALSGARVMLAARDRHKLEQMQAMIQSELAEVGYTDVEDRVHIAPGCDVSSEAQLADLVERTLSAFGTVDYLINNAGIAGVEEMVIDMPVEGWRHTLFANLISNYSLMRKLAPLMKKQGSGYILNVSSYFGGEKDAAIPYPNRADYAVSKAGQRAMAEVFARFLGPEIQINAIAPGPVEGDRLRGTGERPGLFARRARLILENKRLNELHAALIAAARTDERSMHELVELLLPNDVAALEQNPAAPTALRELARRFRSEGDPAASSSSALLNRSIAAKLLARLHNGGYVLPADIFANLPNPPDPFFTRAQIDREARKVRDGIMGMLYLQRMPTEFDVAMATVYYLADRNVSGETFHPSGGLRYERTPTGGELFGLPSPERLAELVGSTVYLIGEHLTEHLNLLARAYLERYGARQVVMIVETETGAETMRRLLHDHVEAGRLMTIVAGDQIEAAIDQAITRYGRPGPVVCTPFRPLPTVPLVGRKDSDWSTVLSEAEFAELCEHQLTHHFRVARKIALSDGASLALVTPETTATSTTEQFALANFIKTTLHAFTATIGVESERTAQRILINQVDLTRRARAEEPRDPHERQQELERFIEAVLLVTAPLPPEADTRYAGRIHRGRAITV
Km [2, 3]: 25.7 ± 2.6 µM | Vmax [2, 3]: 635±14 mU/mg | Km [2, 4]: 0.03 ± 0.003 mM (tartronyl-CoA) mM | Vmax [2, 4]: 0.6 ± 0.01 U mg^−1

B3: MCRE: malonyl-CoA reductase of Erythrobacter sp. NAP1, NCBI accession no. WP_007163680.1, SEQ ID NO: 10 (protein, listed as Erythrobacter sp.)
chain: MSKEGNAAKGRLEGKVALITGAAGNLGNEISRAFAREGAFVVMTGRTEERISAAREQLIADTGVAPERIDTAVLDGGNPDSIRAAMAKLRKEYGRIDILINNAGSAGPKQPLHNVPLSPQEMEACGDTETVRDAMLNILGVTWNMARIVAPMMPVGGAMVNISTIFSHTRYYGRTAYVVPKAALNALSNQLASELGPRGIRVNTVFPGPIESDRIRTVFAAMDEVQSQPKDTTANYFTGRMALTRSVNGKVDGKPLPNPKDIAGTCLFLASEEAAGIAGEEVDVTHGLSANRTSASTYMTRPSMRSLDGAGLNIFIVSGENWDDALVAAHTLIGSGAKVRLGLARNADVAQANARLKAQGIGEELTVTRFNRAEPDAMEDALAAFSGDVDGAITGAIILPVKPSGHFTGSLLAADDDTVTKFMDTELVGAIAVSRSLARYWHGREDLQSPPRCVFMTNPGDPLGNSFASVLSAGITQLIRIWRDEERVQAGNGSTEHAVWSNQIVRHTNTEDENTRFASGHATRVLFREQHIAEIDLKLPANISEETGSRKAMVGFAENITGLHLGKVAFITGGSAGIGGQVARLLALAGAKVMMVARRESELVAARDRIVGELQDIGFAGVERRVKYMADIDVSDFASLDKAVDATLEEFGRIDYLINNAGVAGAEDMVIDMEPEAWRFTLDANLISNYHLMQRVVPLMKEQGSGYVLNVSSYFGGEKFLAVAYPNRADYGLSKAGQRAMVEAFSPFLGPEVQCNAIAPGPVDGDRLSGTGGKPGLFQRRAKLILENKRLNAVYSAVIHAIREGGDAAKILTRLSRNSTSTLSHDAEAPEELRKLALDFASQGDGLCTWDQYLLTDAMAQRLLVRLQLGGFLLGSNEWASLSSSEQTWLKLSPPDDKPFLPAAQVDKVANGVGKGVISQLHLGAMPTEAEVAQATVFFLADRAVSGETFMPSGGLRVERSNTEREMFGSPKQERIDKMKGKTVWIIGEHLSDYVAATIEELVSGCGVAKVVLIAKDKSGEKAVRDQLPNDLSKDALEVLIAGDGLEEAMDEALGHWGKPTTVLSMPGEPLPDHLFEGGNPLSTKDFAHMVEANITRHYRVTRKASLYDGCQVVLVSPDVPYGSDGPGVALANFVKTSLHAFTATVAVENERLVHDVPVNQINLTRRVSSEEPRDADEHAEELRRFTRAVLLVGAPLPDAQDSRYRSKIYRGTSMTV
modifications: [CDS]1..3654 from SEQ ID NO 9
specific activity for tartronyl-CoA, times lower than that of MCRCa (tartronyl-CoA): 6 times | specific activity with tartronyl-CoA (tartronyl-CoA; 37° C.): 0.1 U mg^−1 | specific activity for malonyl-CoA, times lower than MCRCa (malonyl-CoA): 100 times | specific activity with malonyl-CoA (malonyl-CoA; 0.25 mM malonyl-CoA): 0.1 U mg^−1
